PMC4932547, “Improved Aptamers for the Diagnosis and Potential Treatment of HER2-Positive Cancer”

Biological target: HER2 extracellular domain (UniProt P04626 23-652)
Test: SPRi; 5 mM Mg2+; negative aptamer spots subtracted; Selection buffer: 10 mM HEPES, 120 mM NaCl, 5 mM MgCl2, 5 mM KCl; pH not stated; SPRi temperature not stated (50 uL/min, 50 or 100 nM HER2, BSA-blocked chip); cell assays at 37 C
Conditions: protein: commercial

Binder	Kd
ATTAAGAACCATCACTCTTCCAAATGGATATACGACTGGG (ssDNA, 5' hexyl-disulfide) [HeA2_1]	28.9 nM
TCTAAAAGGATTCTTCCCAAGGGGATCCAATTCAAACAGC (ssDNA, 5' hexyl-disulfide) [HeA2_3]	6.2 nM
